Test results: patent US20200249231

Key:
[1] = target: T1, DYFLQ (5-mer on peptide array)
T1 chain: DYFLQ

[2] = target: T2, RQRQR (5-mer on peptide array)
T2 chain: RQRQR

[3] = target: T3, YQRQR (5-mer on peptide array)
T3 chain: YQRQR

[4] = target: T4, YRQRA (5-mer on peptide array)
T4 chain: YRQRA

[5] = target: T5, FRQRQ (5-mer on peptide array)
T5 chain: FRQRQ

[6] = target: T6, DWALQ (5-mer on peptide array)
T6 chain: DWALQ

[7] = target: T7, EWVAQ (5-mer on peptide array)
T7 chain: EWVAQ

[8] = target: T8, PRYRQ (5-mer on peptide array)
T8 chain: PRYRQ

[9] = target: T9, RYRQR (5-mer on peptide array)
T9 chain: RYRQR

[10] = target: T10, EYVLQ (5-mer on peptide array)
T10 chain: EYVLQ

[11] = target: T11, QYRQR (5-mer on peptide array)
T11 chain: QYRQR

[12] = target: T12, EYVAQ (5-mer on peptide array)
T12 chain: EYVAQ

[13] = target: T13, DYALQ (5-mer on peptide array)
T13 chain: DYALQ

[14] = target: T14, EWALQ (5-mer on peptide array)
T14 chain: EWALQ

[15] = target: T15, YRYRQ (5-mer on peptide array)
T15 chain: YRYRQ

[16] = target: T16, AYRQR (5-mer on peptide array)
T16 chain: AYRQR

[17] = target: T17, WYALQ (5-mer on peptide array)
T17 chain: WYALQ

[18] = target: T18, DWVAQ (5-mer on peptide array)
T18 chain: DWVAQ

[19] = target: T19, VRYRQ (5-mer on peptide array)
T19 chain: VRYRQ

[20] = target: T20, QRQRQ (5-mer on peptide array)
T20 chain: QRQRQ

[21] = target: T21, QRQTR (5-mer on peptide array)
T21 chain: QRQTR

[22] = target: T22, LRYRQ (5-mer on peptide array)
T22 chain: LRYRQ

[23] = target: T23, YKYRQ (5-mer on peptide array)
T23 chain: YKYRQ

[24] = target: T24, EYALQ (5-mer on peptide array)
T24 chain: EYALQ

[25] = target: T25, FRQRG (5-mer on peptide array)
T25 chain: FRQRG

[26] = target: T26, EYFLQ (5-mer on peptide array)
T26 chain: EYFLQ

[27] = target: T27, YRQSR (5-mer on peptide array)
T27 chain: YRQSR

[28] = target: T28, RYTQR (5-mer on peptide array)
T28 chain: RYTQR

[29] = target: T29, EWIAQ (5-mer on peptide array)
T29 chain: EWIAQ

[30] = target: T30, VRQRQ (5-mer on peptide array)
T30 chain: VRQRQ

[31] = target: T31, DYVAQ (5-mer on peptide array)
T31 chain: DYVAQ

Z-[GGGDYALQGGGG] = target: T32, Z-[GGGDYALQGGGG]
T32 chain: GGGDYALQGGGG

[32] = target: T33, YRQTR (5-mer on peptide array)
T33 chain: YRQTR

Z-[GGGYRYRQGGGG] = target: T34, Z-[GGGYRYRQGGGG]
T34 chain: GGGYRYRQGGGG

[33] = target: T35, RYSQR (5-mer on peptide array)
T35 chain: RYSQR

[34] = target: T36, DWYLQ (5-mer on peptide array)
T36 chain: DWYLQ

[35] = target: T37, DYWLQ (5-mer on peptide array)
T37 chain: DYWLQ

[36] = target: T38, RFSQR (5-mer on peptide array)
T38 chain: RFSQR

[37] = target: T39, EYWLQ (5-mer on peptide array)
T39 chain: EYWLQ

[38] = target: T40, WQRQR (5-mer on peptide array)
T40 chain: WQRQR

B1: Streptomyces mobaraensis microbial transglutaminase (protein)
chain: DSDDRVTPPAEPLDRMPDPYRPSYGRAETVVNNYIRKWQQVYSHRDGRKQQMTEEQREWLSYGCVGVTWVNSGQYPTNRLAFASFDEDRFKNELKNGRPRSGETRAEFEGRVAKESFDEEKGFQRAREVASVMNRALENAHDESAYLDNLKKELANGNDALRNEDARSPFYSALRNTPSFKERNGGNHDPSRMKAVIYSKHFWSGQDRSSSADKRKYGDPDAFRPAPGTGLVDMSRDRNIPRSPTSPGEGFVNFDYGWFGAQTEADADKTVWTHGNHYHAPNGSLGAMHVYESKFRNWSEGYSDFDRGAYVITFIPKSWNTAPDKVKQGWP
5-mer peptide array, incorporation of N-(biotinyl)cadaverine [1]: The 16 glutamine-donor substrates identified with MTG
5-mer peptide array signal with MTG [2]: found in the mid-field of the signal distribution on the array performed with MTG
5-mer peptide array signal with MTG [3]: found in the mid-field of the signal distribution on the array performed with MTG
5-mer peptide array signal with MTG [4]: found in the mid-field of the signal distribution on the array performed with MTG
5-mer peptide array signal with MTG [5]: found in the mid-field of the signal distribution on the array performed with MTG
5-mer peptide array, incorporation of N-(biotinyl)cadaverine [6]: The 16 glutamine-donor substrates identified with MTG
5-mer peptide array, incorporation of N-(biotinyl)cadaverine [7]: The 16 glutamine-donor substrates identified with MTG
5-mer peptide array signal with MTG [8]: found in the mid-field of the signal distribution on the array performed with MTG
5-mer peptide array signal with MTG [9]: found in the mid-field of the signal distribution on the array performed with MTG
5-mer peptide array, incorporation of N-(biotinyl)cadaverine [10]: The 16 glutamine-donor substrates identified with MTG
5-mer peptide array signal with MTG [11]: found in the mid-field of the signal distribution on the array performed with MTG
5-mer peptide array, incorporation of N-(biotinyl)cadaverine [12]: The 16 glutamine-donor substrates identified with MTG
5-mer peptide array, incorporation of N-(biotinyl)cadaverine [13]: The 16 glutamine-donor substrates identified with MTG
5-mer peptide array, incorporation of N-(biotinyl)cadaverine [14]: The 16 glutamine-donor substrates identified with MTG
5-mer peptide array signal with MTG [15]: found in the mid-field of the signal distribution on the array performed with MTG
5-mer peptide array signal with MTG [16]: found in the mid-field of the signal distribution on the array performed with MTG
5-mer peptide array, incorporation of N-(biotinyl)cadaverine [17]: The 16 glutamine-donor substrates identified with MTG
5-mer peptide array, incorporation of N-(biotinyl)cadaverine [18]: The 16 glutamine-donor substrates identified with MTG
5-mer peptide array signal with MTG [19]: found in the mid-field of the signal distribution on the array performed with MTG
5-mer peptide array signal with MTG [20]: found in the mid-field of the signal distribution on the array performed with MTG
5-mer peptide array signal with MTG [21]: found in the mid-field of the signal distribution on the array performed with MTG
5-mer peptide array signal with MTG [22]: found in the mid-field of the signal distribution on the array performed with MTG
5-mer peptide array signal with MTG [23]: found in the mid-field of the signal distribution on the array performed with MTG
5-mer peptide array, incorporation of N-(biotinyl)cadaverine [24]: The 16 glutamine-donor substrates identified with MTG
5-mer peptide array signal with MTG [25]: found in the mid-field of the signal distribution on the array performed with MTG
5-mer peptide array, incorporation of N-(biotinyl)cadaverine [26]: The 16 glutamine-donor substrates identified with MTG
5-mer peptide array signal with MTG [27]: found in the mid-field of the signal distribution on the array performed with MTG
5-mer peptide array signal with MTG [28]: found in the mid-field of the signal distribution on the array performed with MTG
5-mer peptide array, incorporation of N-(biotinyl)cadaverine [29]: The 16 glutamine-donor substrates identified with MTG
5-mer peptide array signal with MTG [30]: found in the mid-field of the signal distribution on the array performed with MTG
5-mer peptide array, incorporation of N-(biotinyl)cadaverine [31]: The 16 glutamine-donor substrates identified with MTG
KM (Z-[GGGDYALQGGGG]): 847 µM
Vmax (Z-[GGGDYALQGGGG]): 36.7 pmol/s
kcat (Z-[GGGDYALQGGGG]): 1.39 s⁻¹
kcat/KM (Z-[GGGDYALQGGGG]): 1640 M⁻¹ s⁻¹
5-mer peptide array signal with MTG [32]: found in the mid-field of the signal distribution on the array performed with MTG
KM (Z-[GGGYRYRQGGGG]): 644 µM
Vmax (Z-[GGGYRYRQGGGG]): 21.5 pmol/s
kcat (Z-[GGGYRYRQGGGG]): 0.93 s⁻¹
kcat/KM (Z-[GGGYRYRQGGGG]): 1440 M⁻¹ s⁻¹
5-mer peptide array signal with MTG [33]: found in the mid-field of the signal distribution on the array performed with MTG
5-mer peptide array, incorporation of N-(biotinyl)cadaverine [34]: The 16 glutamine-donor substrates identified with MTG
5-mer peptide array, incorporation of N-(biotinyl)cadaverine [35]: The 16 glutamine-donor substrates identified with MTG
5-mer peptide array signal with MTG [36]: found in the mid-field of the signal distribution on the array performed with MTG
5-mer peptide array, incorporation of N-(biotinyl)cadaverine [37]: The 16 glutamine-donor substrates identified with MTG
5-mer peptide array signal with MTG [38]: found in the mid-field of the signal distribution on the array performed with MTG
